We go through two substances from US20030220285A1.

For this test, the target named is purified HLA-A2.1 molecules (human).

For orientation: IC50 means the concentration at which inhibition is half-maximal. Low readings indicate greater potency in that assay, high ones weaker potency in that assay. As to “HBV Pol 551-A (native HBV pol 551-559) peptide […] (peptide; other documents disagree on this pair)”, the IC50 was 200 nM.
As for “HBV Core 18 (HBV core 18-27) peptide […] (peptide; other documents disagree on this pair)”, the figure is 3 nM.
